For assay [1], the target named is human SPAK 452-547(end) (human, UniProt Q9UEW8 452-545). Put plainly: FP.
The target in assay [2] is human SPAK 452-547 with L491A (human, UniProt Q9UEW8 452-545, L491A). As to the kind of experiment: FP.

Ends that are not written are not given here.

B1: Lumio-Green-labelled RFXV-motif-possessing peptide derived from WNK4 (EP4543) (peptide)
peptide: CCPGCCGGGGSEEGKPQLVGRFQVTSSK
modifications: not fully specified (N-terminus); cysteine pairing not given here; also: Lumio Green fluorophore bound to the N-terminal CCPGCC linker
Consider B1, for which the Kd in assay [1] turned out to be 0.6 µM; in assay [2], 88.2 µM.

Broadly, the Kd is the constant that tells how readily two partners part at equilibrium.

(Values after PMC4512625 (2015).)
